# Source: paper doi:10.1101/2022.04.26.489529 (bioRxiv, 2022)
# B1: 58G6 (antibody, V domains shown)
# VH: QMQLVQSGPEVKKPGTSVKVSCKASGFTFSSSAVQWVRQARGQHLEWIGWIVVGSGNTNYAQKFQERVTLTRDMSTRTAYMELSSLRSEDTAVYYCAAPNCNSTTCHDGFDIWGQGTVVTVSS
# VL: EIVLTQSPGTLSLSPGERATLSCRASQSVRSSYLGWYQQKPGQAPRLLIYGASSRATGIPDRFSGSGSGTDFTLTISRLESEDFAVYYCQQYDNSPWTFGQGTKVEIK
# B2: 58G6 Fab (Fab, V domains shown)
# VH: B1 VH
# VL: B1 VL
# Legend:
# [1] = biological target: S protein of the SARS-CoV-2 strain D614G (SARS-CoV-2, D614G, UniProt A0A6H1PJZ3, D614G); assay: ELISA
# [2] = biological target: stabilized Omicron S ECD HexaPro (SARS-CoV-2 Omicron BA.1, N440K | S477N | T478K | E484A | Q493R); assay: cryo-EM structure
binder,measurement,setting,value
B1,binding result,[1],binds
B2,stoichiometry N,[2],1 Fab per trimer
